Results reported in publication PMC11803495.

Tests used:
[1] = molecular target: T1, MBP-dPPR-nad7-Δ (synthetic construct (13 P-type PPR …)); assay: EMSA
T1 chain: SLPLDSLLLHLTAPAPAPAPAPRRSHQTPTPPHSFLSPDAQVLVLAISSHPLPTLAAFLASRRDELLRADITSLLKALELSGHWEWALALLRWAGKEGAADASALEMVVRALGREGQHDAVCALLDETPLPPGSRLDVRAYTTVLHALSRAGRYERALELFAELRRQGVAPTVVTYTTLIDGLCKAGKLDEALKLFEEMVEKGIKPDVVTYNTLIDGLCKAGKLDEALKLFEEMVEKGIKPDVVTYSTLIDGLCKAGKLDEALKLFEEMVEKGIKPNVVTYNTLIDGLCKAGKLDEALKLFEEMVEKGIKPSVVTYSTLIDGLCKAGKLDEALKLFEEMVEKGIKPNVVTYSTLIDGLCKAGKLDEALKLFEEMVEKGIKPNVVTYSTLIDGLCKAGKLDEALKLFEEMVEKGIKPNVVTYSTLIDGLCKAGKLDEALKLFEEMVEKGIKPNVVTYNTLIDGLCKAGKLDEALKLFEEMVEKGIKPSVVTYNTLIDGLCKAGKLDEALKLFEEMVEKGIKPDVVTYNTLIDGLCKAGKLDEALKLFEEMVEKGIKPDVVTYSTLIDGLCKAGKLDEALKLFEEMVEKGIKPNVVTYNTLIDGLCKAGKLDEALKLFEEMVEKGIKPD

[2] = molecular target: T2, MBP-dPPR-nad7-DYW (synthetic construct (13 P-type PPR …)); assay: EMSA
T2 chain: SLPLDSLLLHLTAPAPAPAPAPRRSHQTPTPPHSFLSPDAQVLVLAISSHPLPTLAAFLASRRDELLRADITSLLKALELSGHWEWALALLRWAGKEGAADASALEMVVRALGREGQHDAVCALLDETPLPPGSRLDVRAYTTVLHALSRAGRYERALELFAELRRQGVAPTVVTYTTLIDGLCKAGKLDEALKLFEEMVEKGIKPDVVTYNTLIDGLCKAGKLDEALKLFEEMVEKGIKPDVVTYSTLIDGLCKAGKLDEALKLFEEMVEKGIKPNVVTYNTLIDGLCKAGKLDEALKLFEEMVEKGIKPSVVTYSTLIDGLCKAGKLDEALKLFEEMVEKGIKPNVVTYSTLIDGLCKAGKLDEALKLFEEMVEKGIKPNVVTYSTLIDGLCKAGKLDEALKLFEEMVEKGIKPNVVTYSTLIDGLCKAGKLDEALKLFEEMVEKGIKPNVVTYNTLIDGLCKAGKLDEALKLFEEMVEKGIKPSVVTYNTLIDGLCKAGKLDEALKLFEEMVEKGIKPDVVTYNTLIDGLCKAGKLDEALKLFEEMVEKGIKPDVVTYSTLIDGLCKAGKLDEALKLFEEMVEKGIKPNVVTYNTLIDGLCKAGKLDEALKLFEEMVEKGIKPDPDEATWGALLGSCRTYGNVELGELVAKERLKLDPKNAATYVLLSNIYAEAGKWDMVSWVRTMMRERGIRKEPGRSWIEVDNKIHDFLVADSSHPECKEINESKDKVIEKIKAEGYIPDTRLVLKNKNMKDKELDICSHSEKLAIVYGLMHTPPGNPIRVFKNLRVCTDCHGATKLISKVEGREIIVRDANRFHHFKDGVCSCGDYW

B1: nad7 control (ssRNA)
RNA: CUUUUGAAUUGCGAGGUACCAUUACGAG
binding result [1]: no binding | binding result [2]: no binding
